Measurements from the supplement of paper PMC9112550, “Optimization of the antimicrobial peptide Bac7 by deep mutational scanning” (BMC Biology, 2022).

System: Escherichia coli TOP10
Test: shrunken log2 fold change of peptide-encoding DNA abundance (4.5 h post-induction vs induction); higher = less antimicrobial activity (less host growth inhibition)
Details: time post-induction: 4.5 h; library: site-saturation at positions 5, 18, 19, 20
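Note: peptides expressed intracellularly from a pBAD plasmid library in pooled LB shake-flask culture, induced with 0.3% L-arabinose, DNA abundance read by NGS, three biological replicates, DESeq2 with apeglm shrinkage.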

| Sequence | shrunken log2 fold change |
| --- | --- |
| RRIRGRPPRLPRPRPRPMHWPRP | 0.382 |
| RRIRDRPPRLPRPRPRPNIPPRP | -0.623 |
| RRIRVRPPRLPRPRPRPWKGPRP | 0.103 |
| RRIRARPPRLPRPRPRPCGFPRP | 0.111 |
| RRIRPRPPRLPRPRPRPFEEPRP | -0.00852 |
| RRIRQRPPRLPRPRPRPAFYPRP | -0.0263 |
| RRIRVRPPRLPRPRPRPLDAPRP | 0.571 |
| RRIRDRPPRLPRPRPRPSDYPRP | -0.566 |
| RRIRNRPPRLPRPRPRPPRYPRP | 0.0834 |
| RRIRKRPPRLPRPRPRPRGDPRP | 0.396 |
| RRIRTRPPRLPRPRPRPGENPRP | 0.182 |
| RRIRQRPPRLPRPRPRPWHLPRP | -0.0241 |
| RRIRARPPRLPRPRPRPTVEPRP | 1.19 |
| RRIRFRPPRLPRPRPRPFERPRP | -0.0442 |
| RRIRHRPPRLPRPRPRPGPMPRP | 0.247 |
| RRIRIRPPRLPRPRPRPLKAPRP | -0.02 |
| RRIRERPPRLPRPRPRPARFPRP | 0.168 |
| RRIRLRPPRLPRPRPRPSHPPRP | -0.516 |
| RRIRCRPPRLPRPRPRPWNSPRP | -0.529 |
| RRIRIRPPRLPRPRPRPMALPRP | -0.581 |
| RRIRVRPPRLPRPRPRPEHGPRP | -0.219 |
| RRIRARPPRLPRPRPRPFLEPRP | -0.219 |
| RRIRGRPPRLPRPRPRPLHTPRP | 0.851 |
| RRIRPRPPRLPRPRPRPFQEPRP | -0.185 |
| RRIRARPPRLPRPRPRPYSNPRP | -0.781 |

| Sequence | shrunken log2 fold change |
| --- | --- |
| RRIRLRPPRLPRPRPRPNPQPRP | -0.2 |
| RRIRRRPPRLPRPRPRPSHNPRP | -0.379 |
| RRIRIRPPRLPRPRPRPKINPRP | -0.881 |
| RRIRWRPPRLPRPRPRPFYCPRP | -0.151 |
| RRIRGRPPRLPRPRPRPKNNPRP | 0.198 |
| RRIRQRPPRLPRPRPRPKRMPRP | -0.0373 |
| RRIRNRPPRLPRPRPRPEGLPRP | 0.364 |
| RRIRGRPPRLPRPRPRPHSSPRP | -0.144 |
| RRIRDRPPRLPRPRPRPMYIPRP | -0.148 |
| RRIRGRPPRLPRPRPRPVTMPRP | 0.396 |
| RRIRMRPPRLPRPRPRPEAVPRP | 3.72 |
| RRIRIRPPRLPRPRPRPDVKPRP | -0.147 |
| RRIRLRPPRLPRPRPRPNEDPRP | -0.132 |
| RRIRSRPPRLPRPRPRPKKHPRP | -0.0966 |
| RRIRGRPPRLPRPRPRPFSTPRP | -0.0796 |
| RRIRGRPPRLPRPRPRPGIAPRP | 0.864 |
| RRIRVRPPRLPRPRPRPHNAPRP | -0.164 |
| RRIRFRPPRLPRPRPRPIRIPRP | -0.223 |
| RRIRWRPPRLPRPRPRPCHVPRP | -0.437 |
| RRIRRRPPRLPRPRPRPKPKPRP | 0.273 |
| RRIRPRPPRLPRPRPRPVKYPRP | -0.303 |
| RRIRFRPPRLPRPRPRPQSVPRP | -0.0251 |
| RRIRMRPPRLPRPRPRPWPPPRP | 1.09 |
| RRIRKRPPRLPRPRPRPGMFPRP | -0.126 |
| RRIRDRPPRLPRPRPRPEAIPRP | 0.0379 |

| Sequence | shrunken log2 fold change |
| --- | --- |
| RRIRVRPPRLPRPRPRPRMWPRP | 0.271 |
| RRIRSRPPRLPRPRPRPHMMPRP | -0.113 |
| RRIRARPPRLPRPRPRPHEAPRP | -0.0395 |
| RRIRCRPPRLPRPRPRPGCIPRP | -0.385 |
| RRIRCRPPRLPRPRPRPTSKPRP | 0.921 |
| RRIRIRPPRLPRPRPRPHADPRP | -0.178 |
| RRIRYRPPRLPRPRPRPQAFPRP | -0.142 |
| RRIRWRPPRLPRPRPRPILLPRP | -0.0849 |
| RRIRARPPRLPRPRPRPHFCPRP | -0.105 |
| RRIRPRPPRLPRPRPRPKRQPRP | 0.0603 |
| RRIRKRPPRLPRPRPRPKDPPRP | 0.367 |
| RRIRSRPPRLPRPRPRPYSFPRP | -0.795 |
| RRIRQRPPRLPRPRPRPIRNPRP | -0.0231 |
| RRIRSRPPRLPRPRPRPVKRPRP | 0.26 |
| RRIRTRPPRLPRPRPRPNMCPRP | 0.00985 |
| RRIRFRPPRLPRPRPRPTSRPRP | -0.291 |
| RRIRSRPPRLPRPRPRPKKSPRP | -0.0117 |
| RRIRVRPPRLPRPRPRPFVIPRP | -0.477 |
| RRIRVRPPRLPRPRPRPDKEPRP | 0.000945 |
| RRIRFRPPRLPRPRPRPWSEPRP | -0.173 |
| RRIRDRPPRLPRPRPRPRVSPRP | 0.223 |
| RRIRYRPPRLPRPRPRPFMNPRP | -0.0199 |
| RRIRERPPRLPRPRPRPDGKPRP | 0.00926 |
| RRIRARPPRLPRPRPRPYSCPRP | -0.43 |
| RRIRYRPPRLPRPRPRPVEEPRP | -0.32 |

| Sequence | shrunken log2 fold change |
| --- | --- |
| RRIRYRPPRLPRPRPRPQNRPRP | -0.0755 |
| RRIRKRPPRLPRPRPRPVSTPRP | -0.102 |
| RRIRLRPPRLPRPRPRPKEDPRP | -0.184 |
| RRIRERPPRLPRPRPRPLVLPRP | -0.333 |
| RRIRQRPPRLPRPRPRPAIRPRP | -0.0284 |
| RRIRPRPPRLPRPRPRPGAQPRP | 0.198 |
| RRIRERPPRLPRPRPRPNIWPRP | -0.0737 |
| RRIRYRPPRLPRPRPRPNFTPRP | -0.348 |
| RRIRVRPPRLPRPRPRPMVIPRP | 0.0224 |
| RRIRIRPPRLPRPRPRPISLPRP | -0.129 |
| RRIRMRPPRLPRPRPRPHNSPRP | -0.171 |
| RRIRYRPPRLPRPRPRPTDVPRP | -0.122 |
| RRIRDRPPRLPRPRPRPFHTPRP | -0.569 |
| RRIRQRPPRLPRPRPRPEPEPRP | 0.813 |
| RRIRERPPRLPRPRPRPKDDPRP | 0.104 |
| RRIRRRPPRLPRPRPRPCSVPRP | 0.178 |
| RRIRFRPPRLPRPRPRPNTHPRP | -0.579 |
| RRIRCRPPRLPRPRPRPINSPRP | -0.389 |
| RRIRRRPPRLPRPRPRPLMHPRP | 0.292 |
| RRIRLRPPRLPRPRPRPIMHPRP | 0.0628 |
| RRIRSRPPRLPRPRPRPVMIPRP | -0.0753 |
| RRIRYRPPRLPRPRPRPVGSPRP | -0.277 |
| RRIRARPPRLPRPRPRPSIVPRP | -0.103 |
| RRIRDRPPRLPRPRPRPQEYPRP | -0.0984 |
| RRIRARPPRLPRPRPRPQFCPRP | -0.0724 |

| Sequence | shrunken log2 fold change |
| --- | --- |
| RRIRLRPPRLPRPRPRPLRCPRP | -0.0152 |
| RRIRQRPPRLPRPRPRPYRWPRP | -0.0412 |
| RRIRARPPRLPRPRPRPTNWPRP | 0.835 |
| RRIRQRPPRLPRPRPRPGHAPRP | 0.116 |
| RRIRGRPPRLPRPRPRPWGCPRP | 0.702 |
| RRIRLRPPRLPRPRPRPKIGPRP | -0.251 |
| RRIRLRPPRLPRPRPRPNTFPRP | -0.348 |
| RRIRNRPPRLPRPRPRPAYLPRP | -0.284 |
| RRIRQRPPRLPRPRPRPRCQPRP | -0.0547 |
| RRIRRRPPRLPRPRPRPRVSPRP | 0.335 |
| RRIRKRPPRLPRPRPRPEYRPRP | 0.012 |
| RRIRYRPPRLPRPRPRPGCIPRP | -0.819 |
| RRIRQRPPRLPRPRPRPREQPRP | -0.00783 |
| RRIRIRPPRLPRPRPRPGWMPRP | 0.0116 |
| RRIRVRPPRLPRPRPRPNFKPRP | -0.0173 |
| RRIRTRPPRLPRPRPRPNNPPRP | -0.684 |
| RRIRVRPPRLPRPRPRPAETPRP | 0.344 |
| RRIRVRPPRLPRPRPRPLTEPRP | -0.503 |
| RRIRRRPPRLPRPRPRPYMYPRP | -0.74 |
| RRIRKRPPRLPRPRPRPQCDPRP | 0.279 |
| RRIRIRPPRLPRPRPRPCDKPRP | -0.0161 |
| RRIRHRPPRLPRPRPRPINSPRP | -0.404 |
| RRIRQRPPRLPRPRPRPPGCPRP | 0.342 |
| RRIRFRPPRLPRPRPRPSLGPRP | 0.0257 |
| RRIRDRPPRLPRPRPRPPNRPRP | 0.789 |

| Sequence | shrunken log2 fold change |
| --- | --- |
| RRIRGRPPRLPRPRPRPCCAPRP | 1.55 |
| RRIRHRPPRLPRPRPRPFWNPRP | 0.034 |
| RRIRERPPRLPRPRPRPNLVPRP | -0.0264 |
| RRIRYRPPRLPRPRPRPLSVPRP | -0.576 |
| RRIRSRPPRLPRPRPRPVECPRP | -0.0425 |
| RRIRTRPPRLPRPRPRPWFHPRP | -0.362 |
| RRIRERPPRLPRPRPRPILHPRP | -0.0255 |
| RRIRPRPPRLPRPRPRPMLLPRP | 0.0229 |
| RRIRPRPPRLPRPRPRPEMSPRP | 0.147 |
| RRIRCRPPRLPRPRPRPDAMPRP | 0.0677 |
| RRIRNRPPRLPRPRPRPGHFPRP | 0.0512 |
| RRIRIRPPRLPRPRPRPDQGPRP | 0.0651 |
| RRIRNRPPRLPRPRPRPQCVPRP | -0.0063 |
| RRIRERPPRLPRPRPRPYCMPRP | -1.06 |
| RRIRQRPPRLPRPRPRPKNLPRP | -0.186 |
| RRIRHRPPRLPRPRPRPWYTPRP | -0.17 |
| RRIRYRPPRLPRPRPRPTMAPRP | 0.12 |
| RRIRMRPPRLPRPRPRPNRVPRP | -0.144 |
| RRIRDRPPRLPRPRPRPRNAPRP | -0.145 |
| RRIRVRPPRLPRPRPRPSRMPRP | -0.0384 |
| RRIRDRPPRLPRPRPRPCTCPRP | -0.198 |
| RRIRTRPPRLPRPRPRPRSGPRP | 0.284 |
| RRIRVRPPRLPRPRPRPASDPRP | 0.347 |
| RRIRGRPPRLPRPRPRPGTLPRP | 0.351 |
| RRIRWRPPRLPRPRPRPCRLPRP | 0.0377 |
